Biological target: T1, human programmed cell death protein 1, PD-1 (human, UniProt Q15116 25-288)
T1 construct: In the assay it was the endogenous PD-1 on circulating CD3+ T cells of treated patients; also called CD279; PDCD1
Assay: PD-1 receptor occupancy by flow cytometry on circulating CD3+ T cells of dosed patients

T1 sequence (Q15116 25-288 limits assumed): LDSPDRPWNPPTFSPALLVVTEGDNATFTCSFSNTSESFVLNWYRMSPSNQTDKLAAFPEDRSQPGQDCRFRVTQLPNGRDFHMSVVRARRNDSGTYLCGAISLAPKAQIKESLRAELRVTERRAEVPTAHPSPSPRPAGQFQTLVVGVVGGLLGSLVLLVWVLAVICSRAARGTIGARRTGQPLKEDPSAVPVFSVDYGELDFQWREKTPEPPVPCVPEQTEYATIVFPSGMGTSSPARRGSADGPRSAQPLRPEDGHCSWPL

B1: JNJ-63723283 (cetrelimab) (antibody, human IgG4 S228P, kappa, V domains shown)
VH: QVQLVQSGAEVKKPGSSVKVSCKASGGTFSSYAISWVRQAPGQGLEWMGGIIPIFDTANYAQKFQGRVTITADESTSTAYMELSSLRSEDTAVYYCARPGLAAAYDTGSLDYWGQGTLVTVSS
VL: EIVLTQSPATLSLSPGERATLSCRASQSVRSYLAWYQQKPGQAPRLLIYDASNRATGIPARFSGSGSGTDFTLTISSLEPEDFAVYYCQQRNYWPLTFGQGTKVEIKR
notes: IgG4/kappa antibody; also called study drug
B1: binds.

Reference: patent US20190225689A1 (Janssen / Centocor, published 2019)
